{"source": "paper PMC10992053", "about": "“Rationally introducing non-canonical amino acids to enhance catalytic activity of LmrR for Henry reaction” (Bioresources and Bioprocessing, 2024)", "proteins": {"B1": {"name": "LmrR (Lactococcal multidrug resistance Regulator) (Lactococcus cremoris subsp. cremoris MG1363) (protein)", "chain": "MAEIPKEMLRAQTNVILLNVLKQGDNYVYGIIKQVKEASNGEMELNEATLYTIFKRLEKDGIISSYWGDESQGGRRKYYRLTEIGHENMRLAFESWSRVDKIIENLEANKKSEAIK"}}, "substrate": "O=Cc1ccc([N+](=O)[O-])cc1", "assay": "purified protein", "details": "nitromethane 1 M (excess), 3-18 mM aldehyde, 0.3 mg/mL enzyme, 40 °C, 5 min", "from_the_text": "Henry reaction, product by HPLC, Michaelis-Menten fit on LmrR (Lactococcal multidrug resistance Regulator)"}
{"protein": "B1", "values": [{"measurement": "Km", "value": 9.30, "unit": "mM"}, {"measurement": "Vmax", "value": 1290, "unit": "µM/min"}, {"measurement": "kcat", "value": 0.967, "unit": "s⁻¹"}, {"measurement": "kcat/Km", "value": 104, "unit": "M⁻¹ s⁻¹"}]}
